In article PMC9798103 (The Journal of Cell Biology, 2022):

Molecular target: F-actin (polymerised from Ca2+-ATP G-actin of rabbit skeletal muscle) (rabbit, UniProt P68135 1-377)
Assay: co-sedimentation

Kd: 5.25 µM
B1: N-terminal half of C. elegans RHGF-1 (RHGF-1-N) (domain or fragment)
chain: MRSYEFVTNTPLKLDRHKVYLVDDVAVTRTVPLSQPLSPSTASSSYNMIERCVVVQRQPDGFGLTVNSEFPVYVHTLKQDGAAYCAGVRQGDRIVKVNGMSVSPNNHKEVLQMISNGHNVALTLLGKPPDPISNISFPNQQVEQKIHIADPVLIEASSKSWRQRRNELLGQMVAEERRNVEGLRESSQNGEKIDRALKRIVSLQSQLKQLKPESIISDSQKSLTNLNMDIDSDEEENDVVYLPESQGGPFSNLAELKTHPAHLAVFINYLLLHGNPSSLFFYLITDAYQSAYGTAKEFRRWAFEIFSTFIIPNSPMCIPNSNQSVIQPIDKIMCMTAEHIGDSDTDTLKRIFVPGRQRAVTDINMYLNDFRQKKQLGGQVSESTNQLTHMVRGDMTMEHRVGEQMLFRCLEQCSNSTDFDSCEIRTQSIISSLATVIKIVLGKTSSSSNEKMLDKFPQFMARDKPPGKSRKLPANIKNRIQVKGHSFSINSVNTVHYCYQCRDAIWGMQPWIYFCSNCDVKVHPHCTSALTDACYPVTQSKQKSKSRLSGLIGRSDANDDEDSGSNARHEQPNVKSTSSDSGIGGEHNMDRGLVSRSHSMRYRVATLPQSLSEDKVSIPSSKRDRSVTPSWQRST
